Patent US11911450B2, “Method for managing pain” (UNIVERSITY OF MIAMI, priority 2017, dated 2024)

Legend:
[1] = test system: intracellular calcium release in NBL cells; assay: ATP-stimulated calcium release in NBL cells (Fura2 imaging); assay type: cell-based, human; conditions: 1 μM ATP, vs empty vector
Description: Pharmacodynamics—Bioassay of Calcium Release: Fifteen mm glass coverslips (cat #72228 Electron Microscopy Sciences, Hatfield, PA) were coated with poly-D-Lysine (Sigma) followed by Laminin and 1×10^5 cells were seeded on each coverslip. Twenty-four hrs later, cells were transfected with AAV2-ITR, AAV2-V5-Car10, or AAV2-V5-CA10 vectors as previously described. In embodiments wherein AAV2 is not employed, other expression vectors (including viral vectors) are used. Fura-2AM (cat #F1221 ThermoFisher scientific, Waltham, MA) was dissolved in DMSO (50 μg in 50 μl) and 1% pluronic acid-127 (cat #P2443 Sigma, St Louis, MO) as the stock solution. Forty eight hrs after seeding, cells were loaded with 2 μM Fura-2AM dye for 45 min at room temperature in the dark in a standard Ca+2 buffer solution containing: 125 mM NaCl, 2 mM MgCl, 4.5 mM KCl, 10 glucose, 20 mM HEPES, 2 mM CaCl2, pH 7.4.25. Following dye loading, coverslips were washed with Ca^+2 buffer solution. […] Regions of interest over the field of view were selected and the mean pixels intensity at each frame was measured. Data was plotted as ratio fluorescence intensity versus time and subsequently converted to a relative scale. […]

ITPR1 = ITPR1 (Homo sapiens, UniProt Q14643); assay: NGF-induced intracellular calcium release / ITPR1 activation in NBL cells; assay type: cell-based; parameters: endogenous in cells
ITPR1, sequence (Q14643 whole entry): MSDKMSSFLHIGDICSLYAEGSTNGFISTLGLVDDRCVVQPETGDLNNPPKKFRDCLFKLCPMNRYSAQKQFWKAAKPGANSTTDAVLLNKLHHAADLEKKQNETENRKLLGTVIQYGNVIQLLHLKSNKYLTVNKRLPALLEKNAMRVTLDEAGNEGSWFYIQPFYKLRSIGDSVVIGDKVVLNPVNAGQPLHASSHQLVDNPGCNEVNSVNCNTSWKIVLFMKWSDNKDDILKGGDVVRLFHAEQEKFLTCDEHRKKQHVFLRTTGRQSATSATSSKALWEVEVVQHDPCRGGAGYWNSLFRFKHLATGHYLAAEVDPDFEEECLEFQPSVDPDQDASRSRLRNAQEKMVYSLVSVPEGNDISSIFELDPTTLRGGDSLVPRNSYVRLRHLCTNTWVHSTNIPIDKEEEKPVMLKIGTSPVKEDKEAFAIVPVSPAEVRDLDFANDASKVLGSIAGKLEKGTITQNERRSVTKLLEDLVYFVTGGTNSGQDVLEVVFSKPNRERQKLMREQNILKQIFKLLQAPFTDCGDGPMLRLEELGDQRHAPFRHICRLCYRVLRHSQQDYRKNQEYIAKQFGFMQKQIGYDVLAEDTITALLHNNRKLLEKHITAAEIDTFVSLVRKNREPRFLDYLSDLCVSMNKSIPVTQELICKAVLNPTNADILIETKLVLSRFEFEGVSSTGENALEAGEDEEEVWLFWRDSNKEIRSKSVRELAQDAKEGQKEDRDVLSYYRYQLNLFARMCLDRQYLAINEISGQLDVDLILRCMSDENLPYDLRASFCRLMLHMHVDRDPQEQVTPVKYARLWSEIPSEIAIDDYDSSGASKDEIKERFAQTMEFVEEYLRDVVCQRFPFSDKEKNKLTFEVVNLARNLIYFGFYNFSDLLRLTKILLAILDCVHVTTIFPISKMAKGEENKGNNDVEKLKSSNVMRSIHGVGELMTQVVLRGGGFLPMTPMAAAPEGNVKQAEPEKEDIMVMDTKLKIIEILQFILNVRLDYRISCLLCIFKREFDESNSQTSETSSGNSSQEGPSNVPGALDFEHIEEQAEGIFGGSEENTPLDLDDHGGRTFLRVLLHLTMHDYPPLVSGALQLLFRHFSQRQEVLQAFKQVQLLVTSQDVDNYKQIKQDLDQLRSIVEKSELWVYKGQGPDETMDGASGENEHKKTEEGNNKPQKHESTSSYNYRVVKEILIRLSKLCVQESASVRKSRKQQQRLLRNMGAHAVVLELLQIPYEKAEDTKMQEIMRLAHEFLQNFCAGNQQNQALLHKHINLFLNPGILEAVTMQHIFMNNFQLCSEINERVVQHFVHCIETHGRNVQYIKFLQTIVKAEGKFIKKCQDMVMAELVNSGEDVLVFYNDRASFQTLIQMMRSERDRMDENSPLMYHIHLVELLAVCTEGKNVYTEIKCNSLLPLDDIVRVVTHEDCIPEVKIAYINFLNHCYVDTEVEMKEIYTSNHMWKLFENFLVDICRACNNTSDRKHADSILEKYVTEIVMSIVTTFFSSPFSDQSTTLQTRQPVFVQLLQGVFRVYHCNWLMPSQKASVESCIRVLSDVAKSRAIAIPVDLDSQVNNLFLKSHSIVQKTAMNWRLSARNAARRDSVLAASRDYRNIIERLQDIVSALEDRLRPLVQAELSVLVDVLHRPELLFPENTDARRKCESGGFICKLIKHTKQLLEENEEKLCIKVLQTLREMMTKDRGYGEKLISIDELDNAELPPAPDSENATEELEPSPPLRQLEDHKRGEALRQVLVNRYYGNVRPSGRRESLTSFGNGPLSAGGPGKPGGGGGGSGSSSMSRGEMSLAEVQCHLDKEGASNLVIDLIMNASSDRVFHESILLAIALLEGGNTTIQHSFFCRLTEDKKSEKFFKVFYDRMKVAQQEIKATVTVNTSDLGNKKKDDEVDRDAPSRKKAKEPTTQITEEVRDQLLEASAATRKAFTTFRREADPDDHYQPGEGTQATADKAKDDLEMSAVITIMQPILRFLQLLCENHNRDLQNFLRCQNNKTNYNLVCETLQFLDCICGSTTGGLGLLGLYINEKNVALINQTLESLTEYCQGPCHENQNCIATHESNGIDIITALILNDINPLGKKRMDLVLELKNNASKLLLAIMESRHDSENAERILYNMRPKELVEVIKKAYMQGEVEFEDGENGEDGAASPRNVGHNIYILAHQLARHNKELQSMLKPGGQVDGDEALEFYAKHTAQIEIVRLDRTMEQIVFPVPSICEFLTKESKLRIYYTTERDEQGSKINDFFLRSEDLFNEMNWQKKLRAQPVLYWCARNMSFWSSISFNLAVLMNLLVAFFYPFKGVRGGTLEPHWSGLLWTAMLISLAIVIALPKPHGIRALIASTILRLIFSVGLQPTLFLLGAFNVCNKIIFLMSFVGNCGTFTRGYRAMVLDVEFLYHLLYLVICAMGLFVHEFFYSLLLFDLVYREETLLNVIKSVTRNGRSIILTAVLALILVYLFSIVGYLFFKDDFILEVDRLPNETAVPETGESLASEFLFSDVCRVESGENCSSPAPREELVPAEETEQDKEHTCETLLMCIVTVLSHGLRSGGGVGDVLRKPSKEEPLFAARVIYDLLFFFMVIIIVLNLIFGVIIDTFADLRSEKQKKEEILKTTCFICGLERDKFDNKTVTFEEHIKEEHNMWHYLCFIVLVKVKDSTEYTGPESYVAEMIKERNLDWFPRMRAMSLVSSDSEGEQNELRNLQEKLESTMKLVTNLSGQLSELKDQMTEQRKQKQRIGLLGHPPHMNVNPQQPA

B1: CA8-201: wildtype full length CA8 transcript/peptide (protein, UniProt P35219 1-290, looked up)
chain: MADLSFIEDTVAFPEKEEDEEEEEEGVEWGYEEGVEWGLVFPDANGEYQSPINLNSREARYDPSLLDVRLSPNYVVCRDCEVTNDGHTIQVILKSKSVLSGGPLPQGHEFELYEVRFHWGRENQRGSEHTVNFKAFPMELHLIHWNSTLFGSIDEAVGKPHGIAIIALFVQIGKEHVGLKAVTEILQDIQYKGKSKTIPCFNPNTLLPDPLLRDYWVYEGSLTIPPCSEGVTWILFRYPLTISQLQIEEFRRLRTHVKGAELVEGCDGILGDNFRPTQPLSDRVIRAAFQ
modifications: full-length V5 tag
notes: wildtype full length CA8 transcript/peptide
ATP-stimulated calcium release [1]: able to inhibit Ca^2+ release
NGF-induced ITPR1 activation (pITPR1) (ITPR1): inhibits NGF-induced ITPR1 activation (pITPR1)
NGF-induced intracellular calcium release (ITPR1; NBL cells): nearly completely
